Results as given in the supplement of paper PMC9732359.
± gives the uncertainty stated by the source.

Assay: protein stability index of a GFP-peptide fusion (yeast GPS) (PSI 1-4); higher = more stable; sorted into four equal gates, so the index is relative within each strain
In short: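 Plasmids in a pooled yeast library fused tiled 17-residue yeast protein peptides downstream of GFP and also expressed Cherry. Mid-log cultures grown without leucine were sorted into four equal gates by GFP/Cherry fluorescence ratio. Each gate's plasmids were PCR-amplified and Illumina-sequenced, and reads were matched to strains by barcodes. The protein stability index is derived by multiplying each gate's read frequency by its gate number and summing the results.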

Sequence | protein stability index (doa10∆) | protein stability index (pdr5∆) | protein stability index (san1∆) | protein stability index (ubr1∆)
QPKLNPMASSSSFGSES [SWI1] | 2.85 ± 0.064 | 3.28 ± 0.069 | 3.12 ± 0.048 | 2.92 ± 0.057
AITNTGPREDTTRVGGG [RPS5] | 3.04 ± 0.074 | 3.05 ± 0.073 | 2.9 ± 0.07 | 3.18 ± 0.054
EVINKEIENATKDIFPL [RPS1A] | 3.25 ± 0.29 | 2.74 ± 0.19 | 2.9 ± 0.13 | 3.16 ± 0.082
IEINEDNSQDDQDRGAA [RRI2] | 3.24 ± 0.18 | 3.28 ± 0.23 | 3.12 ± 0.12 | 3.04 ± 0.11
SKTWETYEMRIHKRYID [RPS20] | 2.45 ± 0.13 | 3 ± 0.091 | 1.84 ± 0.18 | 3.21 ± 0.072
STDELVGSPLTVSILQE [POP8] | 2.08 ± 0.084 | 2.62 ± 0.11 | 2 ± 0.1 | 2.26 ± 0.084
DTLKDISTSFCFICLLH [BRN1] | 2.01 ± 0.081 | 2.44 ± 0.072 | 2.27 ± 0.14 | 1.95 ± 0.083
VITPHFITNVQSISQNS [SWI1] | 1.85 ± 0.11 | 2.45 ± 0.11 | 2.2 ± 0.14 | 1.73 ± 0.073
ENGDYAACEKLLPPIKI [RPN12] |  |  | 1.89 ± 0.21 | 
KYYLEESNVNDSDMLTK [NUT1] | 3.13 ± 0.097 | 3.15 ± 0.082 | 3.31 ± 0.07 | 3.36 ± 0.086
LAGKVGSIRVHKSGKLS [RPC53] | 1.45 ± 0.058 | 1.59 ± 0.072 |  | 1.28 ± 0.06
VAQGIMNAGGRNVTIQL [RPN2] |  | 2.61 ± 0.21 |  | 
SNAVTQTNIWEENWDDV [SEM1] | 3.36 ± 0.085 | 3.46 ± 0.12 | 3.32 ± 0.084 | 3.43 ± 0.14
DDDNSNVDYYNVAHRIK [SNF2] | 3.31 ± 0.048 | 3.15 ± 0.044 | 3.06 ± 0.031 | 3.23 ± 0.038
GPKKNVFYAPNVKNYST [RPC34] | 2.69 ± 0.072 | 2.56 ± 0.059 | 2.91 ± 0.056 | 2.49 ± 0.044
KKKRFEIKKWTAVAFWS [HRT1] | 1.97 ± 0.18 | 1.58 ± 0.12 | 1.55 ± 0.26 | 2.27 ± 0.1
DLINILEKKGFSEVYEY [LIN1] | 3.44 ± 0.17 | 3.21 ± 0.29 | 3.3 ± 0.099 | 3.17 ± 0.12
ETTLGEMAEKIDFTLLN [PRP8] | 3.12 ± 0.093 | 3.17 ± 0.1 | 3.19 ± 0.098 | 2.71 ± 0.082
NNETEQLKAEEKKILNQ [SMC1] | 3.11 ± 0.12 | 3.15 ± 0.17 | 3.13 ± 0.17 | 3.01 ± 0.11
VDSGSNDAMAGGFTAYG [RPO21] | 3.26 ± 0.16 |  | 3.37 ± 0.26 | 
ECYKQLFLTAPDSCNMQ [YCS4] | 2.42 ± 0.11 | 2.21 ± 0.16 | 2.85 ± 0.12 | 2.5 ± 0.083
QLVPIRLEFDQDRDRFF [SNF5] | 3.14 ± 0.13 | 2.98 ± 0.16 | 2.98 ± 0.24 | 3.1 ± 0.078
FNNGDDDDYGDEEDPNE [RPC31] | 3.25 ± 0.15 | 2.36 ± 0.17 | 2.98 ± 0.088 | 
WAVKEGPLAEEPIYGVQ [SNU114] | 2.8 ± 0.067 | 2.53 ± 0.079 | 2.76 ± 0.061 | 1.8 ± 0.047
QLWLNSSGDFDDNNNNN [GRR1] | 3.19 ± 0.076 | 3.16 ± 0.07 | 3.17 ± 0.1 | 3.06 ± 0.055
TSIANAFRRIMISEVPS [RPC40] | 1.71 ± 0.043 | 1.83 ± 0.046 | 2.45 ± 0.061 | 1.88 ± 0.042
FVNGVWHGVHRNPARLM [RPB2] | 1.68 ± 0.11 | 1.44 ± 0.067 | 3.39 ± 0.058 | 1.5 ± 0.042

Sequence | protein stability index (doa10∆) | protein stability index (pdr5∆) | protein stability index (san1∆) | protein stability index (ubr1∆)
GKKASLNVGNVLPLGSV [RPL2A] | 2.4 ± 0.051 | 2.29 ± 0.057 | 2.51 ± 0.078 | 2.56 ± 0.042
ASLVPEGNQGSLQEDVS [MED8] | 3.19 ± 0.096 | 3.24 ± 0.087 | 2.9 ± 0.048 | 2.41 ± 0.097
SNSAGTSLFGSSSAQQT [YJL041W/NSP1] | 3.15 ± 0.069 | 3.08 ± 0.079 | 3.12 ± 0.073 | 3.17 ± 0.052
PLPICHANSVVALTGLL [YML031W/NDC1] | 3.13 ± 0.12 | 1.73 ± 0.083 | 2.58 ± 0.099 | 2.5 ± 0.12
IKEDIEKFDLERVTALK [SMC1] | 3.63 ± 0.21 |  | 3.41 ± 0.1 | 
LDESSEQKNTAKEELNG [YIL149C/MLP2] | 3.1 ± 0.15 | 2.95 ± 0.27 | 3.21 ± 0.072 | 3.22 ± 0.087
AVKYGLNHVVSLIENKK [RPL8B] | 2.25 ± 0.079 | 2.37 ± 0.077 | 2.26 ± 0.089 | 2.01 ± 0.047
HKTMSIVGVLQDDADPM [RPT2] | 1.6 ± 0.18 | 1.3 ± 0.2 | 1.58 ± 0.21 | 1.85 ± 0.13
IKILGSEGYQKTFSRLD [RPN4] | 1.28 ± 0.089 | 1.55 ± 0.15 | 1.05 ± 0.24 | 
ADNDGPRINNISAEDRA [SNF2] | 2.79 ± 0.15 | 3.16 ± 0.18 | 2.9 ± 0.1 | 1.52 ± 0.24
KVKPIRGFCQRLKGKQG [RPO31] | 2.79 ± 0.14 | 2.97 ± 0.16 | 2.79 ± 0.13 | 
AAKPDNLANFSNEVAMN [SWP82] | 3.32 ± 0.11 | 3.22 ± 0.088 | 3.15 ± 0.056 | 3.23 ± 0.067
YDRNSNNNHKDKKLLRR [SWI1] | 3.09 ± 0.053 | 3.17 ± 0.05 | 3.06 ± 0.06 | 3.23 ± 0.041
LNDHIDDFEVNVASLVR [GRR1] | 3.29 ± 0.087 | 3.26 ± 0.13 | 2.31 ± 0.25 | 3.08 ± 0.087
SMDTKKKHKQKKVLEID [BRN1] | 3.36 ± 0.063 | 3.32 ± 0.057 | 3.32 ± 0.039 | 3.33 ± 0.044
LTRQPTEGRSRDGGLRL [RET1] | 2.07 ± 0.07 | 2.14 ± 0.077 | 2.06 ± 0.15 | 2.01 ± 0.059
VRKETYSSYIYKVLKQT [HTB2] | 3.08 ± 0.074 | 3.26 ± 0.065 | 3.24 ± 0.051 | 3.12 ± 0.038
GGNSNKSPPQFFYNISS [SIN4] | 2.76 ± 0.043 | 3.04 ± 0.049 | 2.76 ± 0.037 | 2.58 ± 0.041
KEEFSSAENRDEKDYLT [CSE2] | 2.79 ± 0.083 | 2.85 ± 0.086 | 2.65 ± 0.065 | 2.99 ± 0.12
TEAAFTKLDQVWGSETV [RPL4A] | 1.84 ± 0.18 | 1.87 ± 0.11 | 3.07 ± 0.067 | 2.15 ± 0.14
EKVFTQGLNILEWLENP [FAS1] | 3.18 ± 0.12 | 2.98 ± 0.081 | 3.44 ± 0.054 | 3.17 ± 0.046
ISSPIVANSPNKRLDVI [YDL088C/ASM4] | 2.71 ± 0.23 | 2.88 ± 0.14 |  | 2.85 ± 0.13
IGAGVPSLEVASEYIET [FAS1] | 3.38 ± 0.15 | 3.12 ± 0.18 | 2.18 ± 0.23 | 
AISTGAKIDVMLTIARL [RPN7] | 3.31 ± 0.16 | 3.23 ± 0.099 | 3.33 ± 0.054 | 3.38 ± 0.075
TIRLWECGTGTTIHTFN [RPN14] | 2.11 ± 0.18 | 2.4 ± 0.11 | 2.21 ± 0.12 | 1.99 ± 0.13
EKESVEKQHENAVLELG [SMC3] | 3.36 ± 0.2 | 3.52 ± 0.13 | 2.9 ± 0.1 | 3.42 ± 0.073
SSSMDMQANTNALRRNL [SSN3] | 2.63 ± 0.055 | 2.33 ± 0.05 | 3.13 ± 0.046 | 2.28 ± 0.043
